Source: paper PMC9943652

What was measured:
Assay in all cases: EMSA
[1] = molecular target: T1, XPG (human, UniProt P28715 2-1186)
T1 sequence: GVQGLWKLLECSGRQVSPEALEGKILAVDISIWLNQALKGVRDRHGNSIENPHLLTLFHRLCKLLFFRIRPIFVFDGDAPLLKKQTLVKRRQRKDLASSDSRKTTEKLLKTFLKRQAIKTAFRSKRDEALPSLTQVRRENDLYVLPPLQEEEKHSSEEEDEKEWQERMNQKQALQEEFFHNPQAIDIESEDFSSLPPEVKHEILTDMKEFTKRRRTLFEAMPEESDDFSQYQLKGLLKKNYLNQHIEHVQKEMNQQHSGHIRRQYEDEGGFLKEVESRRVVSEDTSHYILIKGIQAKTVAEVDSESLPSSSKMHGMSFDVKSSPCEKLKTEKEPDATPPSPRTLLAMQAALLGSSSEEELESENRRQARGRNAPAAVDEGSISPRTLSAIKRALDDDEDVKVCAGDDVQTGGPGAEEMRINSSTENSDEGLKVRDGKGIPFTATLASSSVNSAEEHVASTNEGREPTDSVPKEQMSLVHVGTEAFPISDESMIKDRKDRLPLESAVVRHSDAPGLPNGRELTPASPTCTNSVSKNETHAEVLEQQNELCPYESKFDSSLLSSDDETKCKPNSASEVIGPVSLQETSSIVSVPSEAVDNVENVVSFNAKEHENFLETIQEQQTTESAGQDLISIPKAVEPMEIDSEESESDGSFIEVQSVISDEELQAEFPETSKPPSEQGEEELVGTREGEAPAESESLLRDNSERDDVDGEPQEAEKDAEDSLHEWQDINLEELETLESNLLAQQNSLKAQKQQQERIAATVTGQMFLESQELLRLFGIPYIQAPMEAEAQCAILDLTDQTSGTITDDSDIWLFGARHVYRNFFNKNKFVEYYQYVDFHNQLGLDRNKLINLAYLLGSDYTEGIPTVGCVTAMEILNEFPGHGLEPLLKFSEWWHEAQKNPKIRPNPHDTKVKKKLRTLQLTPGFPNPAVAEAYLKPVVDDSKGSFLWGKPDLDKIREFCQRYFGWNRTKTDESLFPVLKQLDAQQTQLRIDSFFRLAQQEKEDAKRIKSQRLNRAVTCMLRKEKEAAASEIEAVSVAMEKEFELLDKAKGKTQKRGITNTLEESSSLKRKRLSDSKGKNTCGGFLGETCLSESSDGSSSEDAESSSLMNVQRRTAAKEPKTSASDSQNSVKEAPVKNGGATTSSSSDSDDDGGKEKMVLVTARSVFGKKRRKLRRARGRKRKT

[2] = molecular target: coreTFIIH (7-subunit: XPB, XPD, p62, p52, p44, p34, p8) (human, UniProt P19447;P18074;P32780;Q92759;Q13888;Q13889;Q6ZYL4 …)
[3] = molecular target: coreTFIIH (7-subunit: XPB, XPD, p62, p52, p44, p34, p8);XPG (human;human, UniProt P19447;P18074;P32780;Q92759;Q13888;Q13889;Q6ZYL4;P28715 …, |)

B1: 3'Cy5 40ss/24ds (mixed)
DNA 1: TTTTTTTTTTTTTTTTTTTTTTTTTTTTTTTTTTTTTTTTGCTGTTGCCCGTCTCACTGGTGAA
DNA 2: TTCACCAGTGAGACGGGCAACAGC
For B1, the Kd [1] was roughly 134 nM, the Kd [2] was roughly 82 nM and the Kd [3] was roughly 19 nM.
